Results reported in patent EP1396542B1 (Genetics Institute, LLC, dated 2011).
Values belong to the binder of their own block, whether it stands above or below them.

Experiments:
[1] = molecular target: T1, P-selectin expressed on the surface of CHO cells (CHO:P-selectin cell line) (UniProt P16109 42-830, limits assumed); assay: adhesion of 3H-thymidine labeled CHO:P-selectin cells to transfected COS cells, scintillation counting
T1 construct: whole, on cells
T1 sequence (looked up): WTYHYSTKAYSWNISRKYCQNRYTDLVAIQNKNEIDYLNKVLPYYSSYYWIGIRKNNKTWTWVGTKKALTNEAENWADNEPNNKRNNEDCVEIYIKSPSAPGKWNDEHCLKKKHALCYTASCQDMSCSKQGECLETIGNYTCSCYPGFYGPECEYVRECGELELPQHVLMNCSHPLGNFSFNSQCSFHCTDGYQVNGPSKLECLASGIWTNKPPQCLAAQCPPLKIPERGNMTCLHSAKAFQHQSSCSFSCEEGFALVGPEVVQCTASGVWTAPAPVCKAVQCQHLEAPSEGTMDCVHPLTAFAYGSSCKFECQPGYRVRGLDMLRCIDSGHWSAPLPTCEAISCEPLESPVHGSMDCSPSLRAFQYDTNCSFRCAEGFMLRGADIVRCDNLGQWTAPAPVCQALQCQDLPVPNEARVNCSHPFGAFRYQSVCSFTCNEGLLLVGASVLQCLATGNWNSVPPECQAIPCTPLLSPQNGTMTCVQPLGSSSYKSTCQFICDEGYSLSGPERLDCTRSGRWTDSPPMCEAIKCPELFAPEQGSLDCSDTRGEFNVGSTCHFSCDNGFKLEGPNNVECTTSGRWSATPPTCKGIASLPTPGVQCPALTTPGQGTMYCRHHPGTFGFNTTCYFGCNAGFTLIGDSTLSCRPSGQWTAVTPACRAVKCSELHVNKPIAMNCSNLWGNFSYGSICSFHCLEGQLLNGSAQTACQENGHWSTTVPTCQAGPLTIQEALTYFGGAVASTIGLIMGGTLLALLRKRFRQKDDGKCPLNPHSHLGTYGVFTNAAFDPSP

[2] = molecular target: T1, P-selectin expressed on the surface of …; assay: conditioned medium coated onto plastic dishes, binding of CHO:P-selectin cells; reference is sPSL.T7 without PACE

- fold binding of CHO:P-selectin cells relative to COS mock cells [1]: ~5.4 fold
B1: P-selectin ligand protein, full length, expressed on COS cells co-transfected with pMT21:PL85 and the 3/4FT gene (pEA.3/4FT) (ligand)
chain: QATEYEYLDYDFLPETEPPEMLRNSTDTTPLTGPGTPESTTVEPAARRSTGLDAGGAVTELTTELANMGNLSTDSAAMEIQTTQPAATEAQTTPLAATEAQTTRLTATEAQTTPLAATEAQTTPPAATEAQTTQPTGLEAQTTAPAAMEAQTTAPAAMEAQTTPPAAMEAQTTQTTAMEAQTTAPEATEAQTTQPTATEAQTTPLAAMEALSTEPSATEALSMEPTTKRGLFIPFSVSSVTHKGIPMAASNLSVNYPVGAPDHISVKQCLLAILILALVATIFFVCTVVLAVRLSRKGHMYPVRNYSPTEMVCISSLLPDGGEGPSATANGGLSKAKSPGLTPEPREDREGDDLTLHSFLP
modifications: glycoprotein made in cells co-expressing (α1,3/1,4) fucosyltransferase (3/4FT)
notes: also called PSL; protein encoded by pMT21:PL85

- fold increase in bound CHO:P-selectin cells against P-selectin ligand not co-expressed with PACE [2]: ~2 fold
B2: sPSL.T7 co-expressed with 3/4FT and PACE (PACE-cleaved soluble P-selectin ligand) (ligand, not shown: large carriers)
chain: QATEYEYLDYDFLPETEPPEMLRNSTDTTPLTGPGTPESTTVEPAARRSTGLDAGGAVTELTTELANMGNLSTDSAAMEIQTTQPAATEAQTTPLAATEAQTTRLTATEAQTTPLAATEAQTTPPAATEAQTTQPTGLEAQTTAPAAMEAQTTAPAAMEAQTTPPAAMEAQTTQTTAMEAQTTAPEATEAQTTQPTATEAQTTPLAAMEALSTEPSATEALSMEPTTKRGLFIPFSVSSVTHKGIPMAASNLSV
modifications: glycoprotein made in cells co-expressing 3/4FT
notes: also called PACE-cleaved P-selectin ligand; sPSL.T7 from the CP/PSL-T7 (R4.1) CHO-PACE line
